This is an account of results in patent US20210040232A1 (Regeneron, published 2021).

Experiment [1] has as its target T1, human CTLA-4 (amino acids M1-N223) on stably transfected VI-fibroblast cells (human, UniProt P16410 36-223).
T1 construct: also called VI-fibroblast/hCTLA-4
The experiment is described as follows: ECL cell binding, VI-fibroblast/hCTLA-4 cells.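 Note: antibodies bound to the cells on carbon electrode plates, detected via SULFO-TAG anti-IgG secondary (1 h, RT), electrochemiluminescence read as RLU over a concentration range.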

Experiment [2] deals with T2, soluble human CTLA-4 expressed with a C-terminal myc-myc-polyhistidine tag (human).
T2 construct: soluble protein; also called hCTLA-4.mmh; hCTLA4.mmh
The experiment is described as follows: SPR, mAb capture, 25 C. (SPR reads the build-up and loss of mass on a sensor chip optically.)

Experiment [3] concerns the target T3, recombinant hCTLA-4-mFc (human CTLA-4 extracellular domain with a C-terminal Fc portion of mouse IgG2a) (human).
T3 construct: also called dimeric CTLA-4 protein
The experiment is described as follows: competition ELISA, 400 pM hCTLA-4-mFc on plate-coated hB7-2-hIgG1-6His. For orientation: An ELISA detects its analyte on a solid surface through an enzyme-linked reagent.

In experiment [4] the target is T3, recombinant hCTLA-4-mFc (human CTLA-4 …). In words: competition ELISA, 200 pM hCTLA-4-mFc on plate-coated hB7-1-hIgG1-6His.

T1 sequence (P16410 36-223 limits assumed): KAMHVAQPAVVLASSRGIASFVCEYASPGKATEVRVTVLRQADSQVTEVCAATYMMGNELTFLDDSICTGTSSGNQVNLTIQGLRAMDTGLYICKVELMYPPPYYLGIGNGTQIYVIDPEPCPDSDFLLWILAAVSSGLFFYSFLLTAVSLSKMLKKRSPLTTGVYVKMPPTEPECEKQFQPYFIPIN
T3 sequence (chain, as listed by the source limits assumed): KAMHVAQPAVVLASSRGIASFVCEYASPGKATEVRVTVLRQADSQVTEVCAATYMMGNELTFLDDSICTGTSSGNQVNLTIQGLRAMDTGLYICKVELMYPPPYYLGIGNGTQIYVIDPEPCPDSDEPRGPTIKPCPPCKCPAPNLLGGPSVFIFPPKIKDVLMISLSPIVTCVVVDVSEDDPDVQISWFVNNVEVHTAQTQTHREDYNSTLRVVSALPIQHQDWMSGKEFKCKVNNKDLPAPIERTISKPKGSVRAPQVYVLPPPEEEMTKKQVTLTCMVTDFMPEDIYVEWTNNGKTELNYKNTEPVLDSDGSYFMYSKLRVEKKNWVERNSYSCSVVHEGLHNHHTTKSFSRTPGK

B1: H1M20393N (antibody, V domains shown)
VH: DRQMVESGGGVVQPGRSLRLSCIASGFIISRYGMHWVRQAPGKGLEWVAVIWYDGRNKNYADSVKGRFTISRDNSKNTLYLEMNSLRAEDTAVYYCGRVHQFGAFDIWGQGTMVTVSS
VL: not shown
notes: hybridoma antibody, human variable domains, mouse IgG1 Fc (H1M)
Take B1: in experiment [1], the EC50 (in general, the midpoint of the concentration-response curve) is 7.3 nM and the “ratio of RLU signal to parental VI-fibroblast at 0.6 nM Ab” value (“ratio of RLU signal” below) worked out at 12 ratio.

B2: H2M20379N (antibody, mouse IgG2, V domains shown)
VH: QVQLVESGGGVVQPGRSLRLSCAASGITFSSYGMHWVRQAPGKGLEWVALTSYDGSKKYYSDSVKGRFTISRDNSKNTLYLQMNSLRPEDTAVYYCAKDKGGDDYYGMDVWGQGTTVTVSS
VL: EIVLTQSPGTLSLSPGERATLSCRASQWISSSYLAWYQQKPGQAPRLLIYGAFSRAPGIPGRFSGSGSGTDFTLTISRLEPEDFAVYYCQQYGSSPYTFGQGTKLEIN
notes: hybridoma antibody, human variable domains, mouse IgG2 Fc (H2M)
On to B2, for which, in experiment [1], the EC50 came out at 0.092 nM and the “ratio of RLU signal” value came out at 28 ratio.

B3: H2M20369N (antibody, mouse IgG2, V domains shown)
VH: QVQLVQSGTEVKRPGASVKVSCKASGFTFTGYYIYWVRQAPGEGLEWMGWINPHSGGTKYAQKFQGRVTLTRDTSINTAYLDLISLRSDDTAVYYCARIGGGGYSSYFDYWGQGTLVTVSS
VL: DIQLTQSPSSLSASVGDRVTITCRASQTISTYLNWYQQKPGNAPKLLIYAASSLQSGVPSRFSGRGSGTDFTLTISSLQPEDFATYYCQQGYTTPPITFGQGTRLEIK
notes: as for B2
On to B3, for which, in experiment [1], the EC50 came to 0.9 nM and the “ratio of RLU signal” value was found to be 18 ratio.

B4: H2M20385N (antibody, mouse IgG2, V domains shown)
VH: QVQLVQSGAEVKKPGASVKVSCKTSGYTFTNNGISWVRQVPGQGLEWMGWISPYNGNTKYAQKFQGRVTMTTDTSTTTVYMDVRSLRSDDTAVYFCARDGPITISYFGMDVWGQGTTVTVSS
VL: DIQMTQSPSSLSASVGDRVTITCRASQSISTYLNWYQQKPGKAPKLLIYAASTLQSGVPSRFGGSGSGTDFTLTVSSLQPEDFATYYCQQSYSTPPITFGQGTRLEIN
notes: as for B2
Regarding B4, in experiment [1], it took 5.5 nM to reach a half-maximal effect (EC50) and the “ratio of RLU signal” value amounted to 8 ratio.

B5: H1H20370N (antibody, human IgG1, V domains shown)
VH: QVQLHESGPGLVKPSQTLSLTCSVSGGSISNGGYYWSWIRQHPGQGLEWIGYIYYIGNTYYNPSLESRVTMSIDTSKNQFSLKLSSVTAADTAIYYCARQEFVPGAEYFLHWGQGILVTVSS
VL: DIRMTQSPSSLSASVGDRVTITCRASQTVNTFLNWYQQKPGKAPKLLIFGASSLQSGVPSRFSGSGSGTDFTLTISGLQPEDFAIYYCQQSYSVPPITFGQGTRLEIE
notes: here with human IgG1 Fc (H1H)
Take B5: in experiment [2], binding was put at a Kd of 3.43 nM; the koff (as a rule, the first-order rate constant of dissociation) is 0.000588 s⁻¹; the kon (in general, the rate constant with which the complex forms) worked out at 172000 M⁻¹ s⁻¹; the t1/2 came out at 19.6 min. In experiment [3], the “% Blockade” value turned out to be 96% and the IC50 (commonly the concentration needed to halve the response being measured) came out at 0.99 nM. In experiment [4], the “% Blockade” value is 95% and the IC50 is 0.86 nM.

B6: H1M20370N (antibody, mouse IgG1, V domains shown)
VH: QVQLHESGPGLVKPSQTLSLTCSVSGGSISNGGYYWSWIRQHPGQGLEWIGYIYYIGNTYYNPSLESRVTMSIDTSKNQFSLKLSSVTAADTAIYYCARQEFVPGAEYFLHWGQGILVTVSS
VL: DIRMTQSPSSLSASVGDRVTITCRASQTVNTFLNWYQQKPGKAPKLLIFGASSLQSGVPSRFSGSGSGTDFTLTISGLQPEDFAIYYCQQSYSVPPITFGQGTRLEIE
notes: as for B1
For the molecule B6, in experiment [1], the EC50 turned out to be 0.22 nM and the “ratio of RLU signal” value came out at 23 ratio.

B7: H1H20373N (antibody, human IgG1, V domains shown)
VH: EVQLLESGGGLVQPGGSLRLSCAASGFTFSSYAMSWVRQAPGKGLEWVSDISGSGLSTYYADSVKGRFAISRDNSKNMLYLQMNRLRAEDTAVYYCAKEPSHWNGEAFDIWGQGTMVTVSS
VL: DIQMTQSPSSVSASVGDRVTITCRASQDISSWLAWYQQKPGKAPKLLIYTTANLQSGVPSRFSGSGSGTDFTLTISSLQSEDFATYYCQQANSFPFTFGSGTKVDIK
notes: here with human IgG1 Fc (H1H)
For B7, in experiment [2], the Kd (as a rule, the equilibrium constant for the complex coming apart) was found to be 0.766 nM; the koff came to 0.000401 s⁻¹; the kon came out at 523000 M⁻¹ s⁻¹; the t1/2 amounted to 28.8 min. In experiment [3], the “% Blockade” value is 91% and the IC50 was 34 nM. Besides, the “% Blockade” value in experiment [4] was determined as 22%.

B8: H2M20373N (antibody, mouse IgG2, V domains shown)
VH: EVQLLESGGGLVQPGGSLRLSCAASGFTFSSYAMSWVRQAPGKGLEWVSDISGSGLSTYYADSVKGRFAISRDNSKNMLYLQMNRLRAEDTAVYYCAKEPSHWNGEAFDIWGQGTMVTVSS
VL: DIQMTQSPSSVSASVGDRVTITCRASQDISSWLAWYQQKPGKAPKLLIYTTANLQSGVPSRFSGSGSGTDFTLTISSLQSEDFATYYCQQANSFPFTFGSGTKVDIK
notes: as for B2
Regarding B8, in experiment [1], a half-maximal response (EC50) required 0.062 nM and the “ratio of RLU signal” value turned out to be 22 ratio.

B9: H1H20361N (antibody, human IgG1, V domains shown)
VH: QVQLQESGPGLVKPSQTLSLTCTVSGGSINNGGHYWTWIRQHPGKGLEWIGYIYYIGTTYYNPSLESRLSLSVDTSKNQFSLKLSSVTAADTAIYYCARSSLSVSEAFDVWGQGTMVTVSS
VL: DIQMTQSPSSLSASVGDRITITCRGSQNIGSFLSWYQQRPGKAPKLLIFGAYNLQGGVPSRFSGSGSGTDFTLTISSLQPEDFATYFCQQSYSTPPITFGQGTRLEIK
notes: here with human IgG1 Fc (H1H)
On to B9, for which, in experiment [2], the Kd was found to be 32.1 nM, the koff amounted to 0.00199 s⁻¹, the kon was determined as 62100 M⁻¹ s⁻¹ and the t1/2 is 5.8 min. Moreover, in experiment [3], the “% Blockade” value turned out to be 82% and the IC50 was found to be 65 nM. In experiment [4], the “% Blockade” value came out at 73% and the IC50 worked out at 69 nM.

B10: H2M20368N (antibody, mouse IgG2, V domains shown)
VH: QVQLQESGPGLVRPSQTLSLTCTVSGGSISNGGYYWTWIRQNPGKGLEWIGYIYYIGTTYYNPSLESRLSLSVDTSKNQFSLKLTSVTAADTAVYYCARSSLAVSEAFDIWGQGTMVTVSS
VL: DIQMTQSPSSLSASVGDRFTITCRASQSIGSFLSWYQQKPGKAPKLLIYAASSLQSGVPSRFSGSGSGTDFTLTISSLQPEDFATYYCQQSYNTPPITFGQGTRLEIK
notes: as for B2
On to B10, for which, in experiment [1], the EC50 is 0.26 nM and the “ratio of RLU signal” value was 25 ratio.

B11: H2M20361N (antibody, mouse IgG2, V domains shown)
VH: QVQLQESGPGLVKPSQTLSLTCTVSGGSINNGGHYWTWIRQHPGKGLEWIGYIYYIGTTYYNPSLESRLSLSVDTSKNQFSLKLSSVTAADTAIYYCARSSLSVSEAFDVWGQGTMVTVSS
VL: DIQMTQSPSSLSASVGDRITITCRGSQNIGSFLSWYQQRPGKAPKLLIFGAYNLQGGVPSRFSGSGSGTDFTLTISSLQPEDFATYFCQQSYSTPPITFGQGTRLEIK
notes: as for B2
In the case of B11, in experiment [1], a half-maximal response (EC50) required 0.32 nM and the “ratio of RLU signal” value was 19 ratio.

B12: H2M20387N (antibody, mouse IgG2, V domains shown)
VH: QVQLVESGGGVVQPGRSLRLSCAASGFTFSSYGIHWVRQAPGKGLEWVAVIWYGGNNKYYADSVKGRFTISRDNSKNTLYLQMNSLRAEDTALYHCARSGNFGAFDIWGQGTMVTVSS
VL: EIVLTQSPGTLSLSPGERATLSCRASQSVSSYLAWYQQKPGQAPRLLIYGASSRATGIPDRFSGSGSGTDFILTINRLEPEDFAVYYCQHYGNSPWTFGQGTKVEIK
notes: as for B2
For B12, in experiment [1], the “ratio of RLU signal” value turned out to be 3 ratio.

B13: H1H20372N (antibody, human IgG1, V domains shown)
VH: EVQLVESGGGLVQPGRSLRLSCAGTGFIFDDYAMHWVRQAPGKGLEWVSGISWNSNSLGYADSVKGRFTISRDNAKKSLYLQMSSLRAEDTALYYCVKDVTRLELRGFLDYWGQGTQVTVSS
VL: DIQMTQSPSSLSASVGDRVTITCRASQDIRNDLGWHQQKSGKAPKSLIYAASSLQSGAPSRFSGSGSGTEFTLTISSLQPEDSATYYCLQQNSYPPTFGQGTKVEIK
notes: here with human IgG1 Fc (H1H)
In experiment [2], B13 showed a Kd of 4.55 nM, a koff of 0.000367 s⁻¹, a kon of 80500 M⁻¹ s⁻¹ and a t1/2 of 31.5 min. For the same molecule, in experiment [3], the “% Blockade” value was 98% and the IC50 was determined as 0.99 nM. For the same molecule, in experiment [4], the “% Blockade” value was 98% and the IC50 came out at 2.5 nM.

B14: H1M20372N (antibody, mouse IgG1, V domains shown)
VH: EVQLVESGGGLVQPGRSLRLSCAGTGFIFDDYAMHWVRQAPGKGLEWVSGISWNSNSLGYADSVKGRFTISRDNAKKSLYLQMSSLRAEDTALYYCVKDVTRLELRGFLDYWGQGTQVTVSS
VL: DIQMTQSPSSLSASVGDRVTITCRASQDIRNDLGWHQQKSGKAPKSLIYAASSLQSGAPSRFSGSGSGTEFTLTISSLQPEDSATYYCLQQNSYPPTFGQGTKVEIK
notes: as for B1
Take B14: in experiment [1], a half-maximal response (EC50) required 0.88 nM and the “ratio of RLU signal” value stood at 14 ratio.

B15: H2M20375N (antibody, mouse IgG2, V domains shown)
VH: QLQLQESGPGLVKPSETLSFTCTVSGGSISSNYYYWGWVRQSPGKGLEWIGSIYHTGNAYDNPSLKSRVTISVDTSKNQFSLNLNSVTAADTAIYYCARHHSSSSWWYFDVWGRGTLVIVSS
VL: EIVLTQSPDTLSLSPGERATLSCRASQTVSNSHLAWYQQKPGQAPRLLIYGTSSRATGIPDRFSGSGSGTDFSLTIIRLEPDDFAVYFCQQHESSPPTFGQGAKLEIK
notes: as for B2
With B15, in experiment [1], a half-maximal response (EC50) required 0.19 nM and the “ratio of RLU signal” value amounted to 18 ratio.

B16: H2M20386N (antibody, mouse IgG2, V domains shown)
VH: QVQLVESGGGVVQPGRSLRLSCAASGFTVNRYGIHWVRQAPGKGLEWVAVTWYDGRNKYFADSVKGRFSFSRDSSTNTLYLQMNSLRAEDTAVYYCARGGLFGYFDYWGQGTLVTVSS
VL: EIVLTQSPDTLSLSPGERATLSCRASQSVAGSYLAWYQQKPGQAPRLLIYGASSRATGIPDRFSGSGSGTDFTLTISRLEPEDFAVYYCQQYGTSPWTFGQGTKVEIT
notes: as for B2
Consider B16, for which, in experiment [1], the “ratio of RLU signal” value was found to be 3 ratio.
